Results on three molecules are retold here after publication PMC2098691, “Regulation of the Xenopus Xsox17α1 promoter by co-operating VegT and Sox17 sites”.

The labels stand for the following.
B1: B1 T-box probe (dsDNA)
DNA 1: TGTCCAGAGTTCACACCATCATTGTTTGTTA
DNA 2: TAACAAACAATGATGGTGTGAACTCTGGACA
B2: T-box consensus (Derrière) (dsDNA)
DNA 1: TCTCCAGAGTTCACACCTTCATTGTTTGTTA
DNA 2: TAACAAACAATGAAGGTGTGAACTCTGGAGA
B3: B1 T-box mutant (dsDNA)
DNA 1: TCTCCAGAGTACGCACATTCATTGTTTGTTA
DNA 2: TAACAAACAATGAATGTGCGTACTCTGGAGA

This series addresses T1, VegT (Xenopus, UniProt P87377 1-455).
T1 sequence: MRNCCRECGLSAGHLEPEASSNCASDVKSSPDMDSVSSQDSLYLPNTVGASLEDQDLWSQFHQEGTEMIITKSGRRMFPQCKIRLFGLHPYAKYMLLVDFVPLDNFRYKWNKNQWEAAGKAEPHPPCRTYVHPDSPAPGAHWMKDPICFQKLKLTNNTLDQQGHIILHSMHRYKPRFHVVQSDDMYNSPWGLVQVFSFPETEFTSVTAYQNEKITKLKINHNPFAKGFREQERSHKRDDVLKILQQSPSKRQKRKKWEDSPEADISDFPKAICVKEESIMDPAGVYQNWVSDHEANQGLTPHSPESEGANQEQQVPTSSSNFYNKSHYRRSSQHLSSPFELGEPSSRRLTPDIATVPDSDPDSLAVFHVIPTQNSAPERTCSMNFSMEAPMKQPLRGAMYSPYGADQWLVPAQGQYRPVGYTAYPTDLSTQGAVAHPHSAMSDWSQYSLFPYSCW
The experiment in a line: EMSA; poly(dI.dC); 15 µl with 3 µl MDB buffer (20 mM HEPES pH 7.9, 100 mM KCl, 12.5 mM MgCl2, 0.1 mM EDTA, 17% glycerol, 2 mM DTT (printed DDT)), 2 µg poly(dI.dC), 1 µl IVT protein, 10 min + 10 min (preincubation at 30 °C); 15% gel at 4 °C; 50-fold competitor in controls. As to conditions: label: 5' 32P (forward strand), blunt.
In the case of B1, the binding result is recorded as “binds”.

On to B2, for which the binding result is listed as “binds”.

As to B3, the binding result is reported as “no binding”.
